Test results published in patent US20070015232A1, “Mitotic index assay” (DiscoveRx, Inc., priority 2005, published 2007).

What was measured:
[1] = biological target: EA-NLS/NRS (β-galactosidase enzyme acceptor fragment fused to a nuclear localization signal / nuclear retention signal) (E. coli) [β-galactosidase: P00722]; experiment: cell-based or functional assay
[2] = biological target: cyto-EA (β-galactosidase enzyme acceptor fragment localized in the cytoplasm) (E. coli) [β-galactosidase: P00722]; experiment: cell-based or functional assay

Substance | EFC (β-galactosidase chemiluminescence after lysis), CHO-K1 pool, Taxol, nocodazole and colchicine overnight [1] | EFC activity (β-galactosidase chemiluminescence after lysis), C2C12 cells, nocodazole 1-10 µg/mL [1] | EFC activity, CHO-K1 clone #69, nocodazole and colchicine [1] | EFC activity, CHO-K1 cyto-EA cells transiently transfected with cJUN-PL, nocodazole and colchicine [2]
GR-PL (human glucocorticoid receptor fused to PL, a 55 mer α-fragment of β-galactosidase) (from UniProt P04150 1-777) | < 4 fold | 2 fold | 3 to 4 fold | –
cJUN-PL (c-Jun fused to the PL β-galactosidase enzyme donor fragment) | – | – | – | 2.1 fold
